The MegaScale stability set (Tsuboyama et al. 2023)

B1: EHEE_rd2_0191 (parent)
chain: TTEYTFTDDEEARRAIEELKKRGLTFRYEKHGTTWRVRVD
B2: HEEH_KT_rd6_0007 (parent)
chain: SIEEEIKKAEEAKEKGKTFIHGDFVATTEELLDELLKRLRKKL

Variants of: B1
Assay: folding stability dG (cDNA display proteolysis); higher = more stable
Conditions: PBS, room temperature

Row | Variant | folding stability dG
1 | T1H | 8.79 kJ/mol
2 | T1S | 8.58 kJ/mol
3 | T1Y | 12.3 kJ/mol
4 | T1M | 9.25 kJ/mol
5 | T1F | 11.3 kJ/mol
6 | T1W | 13.4 kJ/mol
7 | T1R | 7.82 kJ/mol
8 | T1E | 8.09 kJ/mol
9 | T1Q | 8.52 kJ/mol
10 | T1I | 10.2 kJ/mol
11 | T1V | 10.2 kJ/mol
12 | T1A | 8.62 kJ/mol
13 | T1L | 8.37 kJ/mol
14 | T1D | 7.3 kJ/mol
15 | T1K | 7.47 kJ/mol
16 | T1P | 9 kJ/mol
17 | T1G | 8.17 kJ/mol
18 | T1N | 6.79 kJ/mol
19 | T2C | 12.1 kJ/mol
20 | T2A | 7.61 kJ/mol
21 | T2F | 9.76 kJ/mol
22 | T2D | 5.64 kJ/mol
23 | T2E | 7.35 kJ/mol

Variants of: B2
Assay: as above
Conditions: PBS, room temperature

Row | Variant | folding stability dG
24 | L36Q | 1.27 kJ/mol
25 | L36K | -0.0293 kJ/mol
26 | L36W | 3.58 kJ/mol
27 | L36G | 0.134 kJ/mol
28 | L36H | 1.04 kJ/mol
29 | L36Y | 2.73 kJ/mol
30 | L36R | 2.22 kJ/mol
31 | L36I | 6.79 kJ/mol
32 | L36E | -0.251 kJ/mol
33 | L36T | 0.749 kJ/mol
34 | L36N | 0.192 kJ/mol
35 | L36S | 0.774 kJ/mol
36 | L36F | 3.17 kJ/mol
37 | L36P | -0.452 kJ/mol
38 | L36M | 2.85 kJ/mol
39 | L36V | 3.51 kJ/mol
40 | K42P | 2.02 kJ/mol
41 | K42Q | 5.95 kJ/mol
42 | K42V | 5.16 kJ/mol
43 | K42A | 5.95 kJ/mol
44 | K42L | 7.64 kJ/mol
45 | K42T | 4.97 kJ/mol
46 | K42S | 4.74 kJ/mol
47 | K42N | 2.93 kJ/mol

Row | Variant | folding stability dG
48 | K42W | 7.65 kJ/mol
49 | K42R | 5.6 kJ/mol
50 | K42E | 5.16 kJ/mol
51 | K42H | 4.6 kJ/mol
52 | K42G | 2.6 kJ/mol
53 | K42F | 5.76 kJ/mol
54 | K42D | 3.91 kJ/mol
55 | K42I | 6.64 kJ/mol
56 | K42M | 7.27 kJ/mol
57 | K42Y | 6.26 kJ/mol
58 | L39G | -1.79 kJ/mol
59 | L39E | -1.88 kJ/mol
60 | L39N | 0.364 kJ/mol
61 | L39R | 2.16 kJ/mol
62 | L39F | 3.37 kJ/mol
63 | L39V | 0.331 kJ/mol
64 | L39Q | -0.247 kJ/mol
65 | L39I | 3.54 kJ/mol
66 | L39K | 0.427 kJ/mol
67 | L39M | 4.09 kJ/mol
68 | L39Y | 2.92 kJ/mol
69 | L39S | 0.389 kJ/mol
70 | L39A | 0.703 kJ/mol
71 | L39W | 3.77 kJ/mol

Row | Variant | folding stability dG
72 | L39H | 0.247 kJ/mol
73 | L39P | -1.05 kJ/mol
74 | L39T | -0.209 kJ/mol
75 | R40D | -0.833 kJ/mol
76 | R40L | 4.26 kJ/mol
77 | R40A | 2.22 kJ/mol
78 | R40E | -0.761 kJ/mol
79 | R40G | 0.649 kJ/mol
80 | R40C | 5.49 kJ/mol
81 | R40H | 2.77 kJ/mol
82 | R40T | 1.95 kJ/mol
83 | R40M | 3.67 kJ/mol
84 | R40W | 5.16 kJ/mol
85 | R40F | 4.62 kJ/mol
86 | R40N | 1.5 kJ/mol
87 | R40Y | 7.06 kJ/mol
88 | R40S | 1.59 kJ/mol
89 | R40P | -1.41 kJ/mol
90 | R40V | 2.92 kJ/mol
91 | R40Q | 2.07 kJ/mol
92 | R40I | 3.25 kJ/mol
93 | R40K | 3.23 kJ/mol
94 | R38D | 2.06 kJ/mol
95 | R38I | 7.23 kJ/mol

Row | Variant | folding stability dG
96 | R38S | 3.52 kJ/mol
97 | R38L | 8.13 kJ/mol
98 | R38G | 2.18 kJ/mol
99 | R38M | 7.97 kJ/mol
100 | R38N | 3.64 kJ/mol
101 | R38A | 5.74 kJ/mol
102 | R38Y | 8.41 kJ/mol
103 | R38W | 8.36 kJ/mol
104 | R38T | 4.8 kJ/mol
105 | R38F | 7.67 kJ/mol
106 | R38V | 5.73 kJ/mol
107 | R38Q | 5.16 kJ/mol
108 | R38H | 6.69 kJ/mol
109 | R38P | -1 kJ/mol
110 | R38E | 3.88 kJ/mol
111 | R38K | 4.29 kJ/mol
112 | K37F | 3.87 kJ/mol
113 | K37T | 5.27 kJ/mol
114 | K37I | 4.8 kJ/mol
115 | K37N | 4.91 kJ/mol
116 | K37Y | 3.92 kJ/mol
117 | K37V | 4.39 kJ/mol
118 | K37Q | 5.72 kJ/mol
119 | K37D | 4.08 kJ/mol

Row | Variant | folding stability dG
120 | K37C | 8.6 kJ/mol
121 | K37P | -1.95 kJ/mol
122 | K37W | 3.48 kJ/mol
123 | K37E | 5.23 kJ/mol
124 | K37M | 5.84 kJ/mol
125 | K37S | 5.07 kJ/mol
126 | K37H | 4.47 kJ/mol
127 | K37L | 6.33 kJ/mol
128 | K37A | 6.26 kJ/mol
129 | K37R | 7.01 kJ/mol
130 | K37G | 3.61 kJ/mol
131 | K41S | 4.68 kJ/mol
132 | K41I | 5.02 kJ/mol
133 | K41W | 4.5 kJ/mol
134 | K41D | 4.59 kJ/mol
135 | K41P | 0.238 kJ/mol
136 | K41A | 6.56 kJ/mol
137 | K41H | 4.82 kJ/mol
138 | K41Q | 5.9 kJ/mol
139 | K41Y | 3.97 kJ/mol
140 | K41E | 4.99 kJ/mol
141 | K41T | 4.36 kJ/mol
142 | K41L | 5.94 kJ/mol
143 | K41V | 4.48 kJ/mol

Row | Variant | folding stability dG
144 | K41F | 3.97 kJ/mol
145 | K41N | 4.64 kJ/mol
146 | K41G | 3.87 kJ/mol
147 | K41M | 5.76 kJ/mol
148 | K41R | 6.44 kJ/mol
149 | L43G | 1.86 kJ/mol
150 | L43V | 2.35 kJ/mol
151 | L43Y | 4.15 kJ/mol
152 | L43H | 3.3 kJ/mol
153 | L43A | 2.47 kJ/mol
154 | L43F | 4.38 kJ/mol
155 | L43C | 5.47 kJ/mol
156 | L43W | 4.42 kJ/mol
157 | L43K | 3.44 kJ/mol
158 | L43N | 2.37 kJ/mol
159 | L43M | 3.59 kJ/mol
160 | L43I | 3.21 kJ/mol
161 | L43E | 0.937 kJ/mol
162 | L43Q | 3.5 kJ/mol
163 | L43D | 0.866 kJ/mol
164 | L43R | 4.75 kJ/mol
165 | L43T | 2.23 kJ/mol
166 | L43S | 2.19 kJ/mol
167 | L43P | 1.8 kJ/mol
